Measurements reported in publication PMC3040262.

Molecular target: PP1α_(7-330), His6-tag removed by TEV protease, P62136
Experiment: SEC

PP1α_(7-330), His6-tag removed by TEV protease, P62136, sequence (P62136 7-330): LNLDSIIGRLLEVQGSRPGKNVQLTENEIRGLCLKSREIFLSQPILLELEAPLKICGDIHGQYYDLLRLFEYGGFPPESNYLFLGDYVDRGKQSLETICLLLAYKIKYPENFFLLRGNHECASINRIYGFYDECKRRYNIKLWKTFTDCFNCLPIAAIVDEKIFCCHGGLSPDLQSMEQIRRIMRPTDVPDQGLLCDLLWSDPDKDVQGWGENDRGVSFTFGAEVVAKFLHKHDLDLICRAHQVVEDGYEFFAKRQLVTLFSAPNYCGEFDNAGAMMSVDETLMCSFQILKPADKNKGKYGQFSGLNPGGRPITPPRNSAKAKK

- stoichiometry N: 1
B1: I-2_(9-164) C85S (domain or fragment)
chain: PIKGILKNKTSTTSSMVASAEQPRGNVDEELSKKSQKWDEMNILATYHPADKDYGLMKIDEPSTPYHSMMGDDEDASSDTEATEAMAPDILARKLAAAEGLEPKYRIQEQESSGEEDSDLSPEEREKKRQFEMKRKLHYNEGLNIKLARQLISKDL
modifications: not checked
